We go through one molecule from US20090162363A1 (published 2009).

Assay [1] concerns the target T1, recombinant human PEDF protein (pigment epithelium derived factor) (human, UniProt P36955 20-418).
T1 chain: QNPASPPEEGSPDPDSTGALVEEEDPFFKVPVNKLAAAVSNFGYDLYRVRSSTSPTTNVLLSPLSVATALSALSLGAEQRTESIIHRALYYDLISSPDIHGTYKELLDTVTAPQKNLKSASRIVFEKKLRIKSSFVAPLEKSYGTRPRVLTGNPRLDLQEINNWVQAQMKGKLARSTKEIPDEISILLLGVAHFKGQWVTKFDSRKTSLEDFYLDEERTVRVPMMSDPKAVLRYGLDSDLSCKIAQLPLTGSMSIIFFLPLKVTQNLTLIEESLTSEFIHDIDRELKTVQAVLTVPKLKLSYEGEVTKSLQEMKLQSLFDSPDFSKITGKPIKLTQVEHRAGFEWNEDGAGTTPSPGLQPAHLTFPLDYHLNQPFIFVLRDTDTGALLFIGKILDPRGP
Briefly: SPR (BIAcore), PEDF immobilized on CM5 chip; PBS with 0.1% NP-40. In general terms: In SPR one partner is held on a chip, and binding of the other changes the refractive index at the surface.

Assay [2] has as its target T1, recombinant human PEDF protein (pigment …). Described as above.

B1: R1N (recombinant human PEDF-R1 polypeptide with N-terminal 6xHis tag, from pEXP1-R1N) (receptor)
chain: MFPREKTWNISFAGCGFLGVYYVGVASCLREHAPFLVANATHIYGASAGALTATALVTGVCLGEAGAKFIEVSKEARKRFLGPLHPSFNLVKIIRSFLLKVLPADSHEHASGRLGISLTRVSDGENVIISHFNSKDELIQANVCSGFIPVYCGLIPPSLQGVRYVDGGISDNLPLYELKNTITVSPFSGESDICPQDSSTNIHELRVTNTSIQFNLRNLYRLSKALFPPEPLVLREMCKQGYRDGLRFLQRNGLLNRPNPLLALPPARPHGPEDKDQAVESAQAEDYSQLPGEDHILEHLPARLNEALLEACVEPTDLLTTLSNMLPVRLATAMMVPYTLPLESALSFTIRLLEWLPDVPEDIRWMKEQTGSICQYLVMRAKRKLGRHLPSRLPEQVELRRVQSLPSVPLSCAAYREALPGWMRNNLSLGDALAKWEECQRQLLLGLFCTNVAFPPEALRMRAPADPAPAPADPASPQHQLAGPAPLLSTPAPEARPVIGALGL
Take B1: in assay [1], the Kd (as a rule, the free concentration of one partner at which half of the binding sites on the other are occupied at equilibrium, for simple one-to-one binding) was determined as 2.31 nM. The Ka in assay [2] amounted to 4.32e+08 M⁻¹.
